Consider 19 variants from the RNAGym collection of RNA variant scans (doi:10.1073/pnas.2313332121).

Fewer inactive variants are shown than the library holds.

Sequences and labels used below:
B1: TPR 5TU (parent)
chain: GGAUCUUCUCGAUCUAACAAAAAAGACAAAUCUGCCACAAAGCUUGAGAGCAUCUUCGGAUGCAGAGGCGGCAGCCUUCGGUGGCGCGAUAGCGCCAACGUUCUCAACUAUGACACGCAAAACGCGUGCUCCGUUGAAUGGAGUUUAUCAUG

Variants of B1 are the subject of this series. The series can be described thus: polymerase ribozyme fitness, log enrichment relative to wild type (log ratio); higher = more active; in vitro selection for triplet polymerase activity. The method, boiled down:
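Mutant libraries of each subunit of a heterodimeric triplet polymerase ribozyme were built by PCR and transcribed. Each library went through one round of in vitro selection in triplicate: annealing with biotinylated primer, partner subunit and triplets, frozen incubation at −7 °C, gel excision of extended constructs, streptavidin-bead capture and RT-PCR. Input and output libraries were Illumina-sequenced; only genotypes with ≥10 input reads and ≥1 read per output were kept. Fitness is log2(genotype enrichment/wild-type enrichment), using inverse-variance-weighted replicate averages.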
In the case of GGAUCUUCUCGAUCUAACAAAAAAGACAAAUCUGCCACAAAGCUUGAGAGCAUCUUCGGAUGCAGAGGCGGCAGCCUUCGGUGGCGCGAUAGCGCCAACGUUCUCAACUAUGACACGCAAAACGCGUGCUCCGUUGUAUGUAGUUUAUCAUG [A137U G141U], the “polymerase ribozyme fitness (log ratio)” value was -3.93.
For GGAUCUUCUCGAUCUAACAAAAAAGACAAAUCUGCCACAAAGCUUGAGAGCAUCUUCGGAUGCAGAGGCGGCAGUCUUCGGUGGCGCGAUGGCGCCAACGUUCACAACUAUGACACGCAAAACGCGUGCUCCGUUGAAAGGAGUUUAUCAUG [C75U A91G U104A U139A] the value was at most -4.2; for GGAUCUUCUCGAUCUAACAAAAAAGACAAAUCUGCCACAAAGCUUGAGAGGAUCUUCGGAUGCAGAGGCGGCAGCCUUAGGUGGCGCGAUAGCGCCAACGUUCUCAACUAUGACACGCAAAACGCGUGCUCCGUUGAAUGGAGUUUAUCAUG [C51G C79A], at most -4.2.
In the case of GGAUCUUCUCGAUCUAACAAAAAAGACAAAUCUGCCACAAAGCUUGAGAGCAUCUUCGGAUGCAGAGGCGGCAGCCUUCGGUGGCGCGAUAGAGCCAACGUUCUCAACUAUGACACGCAACACGCGUGCUCCGUUGAAUGGAGUUUACCAUG [C93A A121C U148C] it was -2.37.
Turning to GGAUCUUCUCGAUCUAACAAAAAAGACAAAUCUGCCACAAAGCUUGAGAGCAUCUUCGGAUGCAGAGGCGGCAGCCUUCGGUGGCGCGAUAGCGCCAACGUUCUCAGCUAUGACACGUAAAACGCGUGCUCCGUUGAAUGGAGUAUAUCAUG [A107G C118U U145A], the “polymerase ribozyme fitness (log ratio)” value was at most -4.2.
GGAUCUUCUCGAUCUAACAAAAAAGACAAAUCUGCCACAAAGCUUCAGAGCAUUUUCGGAUGCAGAGGCGGCAGCCUUCGGUGGCGCGAUAGCACCAAAGUUCUCAACUAUGACACGCAAAACGCGUGCUCCGUUGAAUGGUGUUUAUCACG [G46C C54U G94A C99A A142U U151C]: the “polymerase ribozyme fitness (log ratio)” value is at most -4.2.
Turning to GGAUCUUCUCGAUCUAACAAAAAAGACAAAUCUGCAACAAAGCUUGAGAGCAUCUUCGGAUGCAGAGGCGGCAGCCUUCGGUGGUGCGUUAGCGCGAACGUUCUCAACUAUGACACGCAAAACGCGUGCUCCGUUGAAUGGAGUUUAUCAUG [C36A C85U A89U C96G], the “polymerase ribozyme fitness (log ratio)” value was at most -4.2.
Regarding GGAUCUUCUCGAUCUAACAAAAAAGACAAAUCUGCCAUAAAGCUUGAGAGCAUCUUCGGAUGCAGAGGCGGCAGCCUUCGGUGUCGGGAUAGCGCCAACGUUCUCAACUAUGACACGCAAAACGCGUGCUCCGUUGAAUGGAGCUUAUGAUG [C38U G84U C87G U144C C149G], the “polymerase ribozyme fitness (log ratio)” value was at most -4.2.
GGAUCUUCUCGAUCUAACAAAAAAGAUAAAUCUGCCACAAAGCUUGAGAGCAUCUUCGGAUGCAGAGGCGGCAGCCUUCGGUGGCUCGAUAGCGCCAAGGUUCUCAACUAUGACACGCAAAACGCGUGCUCCGUUGAAUGGAGUUUAUCAUG [C27U G86U C99G]: the “polymerase ribozyme fitness (log ratio)” value was at most -4.2.
Consider GGAUCUUCUCGAUCUAACAAAAAUGACAAAUCUGCCACAAACCUUGAGAGCAUCUUCGGAUGCAGAGGCGGCAGCCUUCGGUGACGCGAUAGUCCCAAAGUUCUCAACUAUGACACGCAAAGCGCGUGCUCCGUUGAAUGGAGUUUAUCAUG [A24U G42C G84A C93U G94C C99A A122G], for which the “polymerase ribozyme fitness (log ratio)” value is at most -4.2.
Consider GGAUCUUCUCGAUCUAACAAAAAAGACAAAUCUGCCACAAAGCUUGAGAGCAUCUUCGGAUGCAGAGGCGGCAGCCUUCGGUGGUGCGAUAGCGCCAACGUUCUCAACUAUGACACGCAAAACGCGUGCUCCGUUGAAUGGAGUUUAUCAGG [C85U U151G], for which the “polymerase ribozyme fitness (log ratio)” value was -4.14.
As to GGAUCUUCUCGAUCUAACAAAAAAGACAAAUCUGCCACAAAGCUUGAGAGCAACUUCGGAUGCAGUGGCGGCAGCCUUCGGUGGCGCGAUAGCGCCAACGUUCUCAACUAUGACACGCAAAACGCGUGCUCCGUUGAAUGGAGUUUAUCAUG [U53A A66U], the “polymerase ribozyme fitness (log ratio)” value is at most -4.2.
As for GGAUCUUCUCGAUCUAACAAAAAAGACAAAUCUGCCACAAAGCAUGAGAGCAUCUUCGGAGGCAGCGGCGGCAGCCUUCGGUGGCGCGAUUGCGCCAACGUUCUCAACUAUGACACGCAAAACGCGUGCUCUGUUGAAUGCAGUUUAUCAUG [U44A U61G A66C A91U C132U G141C], the “polymerase ribozyme fitness (log ratio)” value was at most -4.2.
GGAUCUUCUCGAUCUAACAAAAAAGUCAAAUCUGCCACAAAGCUUGAGAGCAUCUUCGGAUGCAGAGGCGGCAGCCUUCGGUUGCGCGAUAGCGGCAACGUUCUAAACUAUGACACGCAAAACGCGUGCUCCGUUGAAUGAAGUUCAUCACG [A26U G83U C95G C105A G141A U146C U151C]: the “polymerase ribozyme fitness (log ratio)” value was at most -4.2.
For GGAUCUUCUCGAUCUAACAAAAAAGACAAAUCUGCCACAAAGCUUGAGAGCAUCUUCGGAUGCAGAGGCGGCAGCCUUCGGUGGCGCGAUAGCGCGAACGUUCUCAACUAUGACACGCAAAACGCGUGCUCCGUUGAAUGGAGUUUAUCUUG [C96G A150U], the “polymerase ribozyme fitness (log ratio)” value came out at 0.451.
Take GGAUCUUAUCGAUCUAUCAAAAAAGUCAAAUCUGCCACAAAGCUUGAUAGCAUCUUCGGAUGCAGAGUCGGCAGCCUUCGGUGGCGCGAUAGGGCCAACGUUCUCAACUAUGACACGCAAAACGCGUGCUCGGUUGAAUGCAGUUUAGCAUG [C8A A17U A26U G48U G68U C93G C132G G141C U148G]: the “polymerase ribozyme fitness (log ratio)” value was at most -4.2.
As for GGAUCUUCUCGAUCUAACAAAAAAGACAAAUCUGCCACAAAGGUUGAGAGCAUCUUCGGAUGCAGAGGCGGCAGCCUUCGGUGGCGUGAUAGCGCCAACGUUCUCAACGAUGACACGCAAAACGCGUGCUCCGUUGAAUGGAGUUUAUCAUG [C43G C87U U109G], the “polymerase ribozyme fitness (log ratio)” value is at most -4.2.
In the case of GGAUCUUCUCGAUCUAACAAAAAAGACAAAUCUGCCACAAAGCUUGAAAGCAUCUUCGAAUGCAGAGGCGGCAGCCUUCGGUGGCGCGAUAGCGCCAACGUUCUCAACUAUGACACGCAAAACGCGUGCUCCGUUGAAUGGAGUUUAUCAUG [G48A G59A] it was -0.452.
On to GGAUCUUCUCGUUCUAACAAAAAAGACAAAUCUGCCACAAAGCUUGAGAGCAUCUUCGGAUGCAGAGGCGGCAGCCUUCGGUGGCGAGAUAGCGCCAACGUUCUCAACUAUGACACGCAAAACGCGUGCUCCGUUGAAUGGAGUUUAUCAUG [A12U C87A], for which the “polymerase ribozyme fitness (log ratio)” value is -4.15.
